The values that follow come from the DeepSol protein solubility set.

The nature of the series: soluble on expression in E. coli; label from the status in PepcDB or PDB records.
Consider “MAKRKKKEVFDWEDEDQEEIIWVSKSEIKRDAEDLKQLGEKIVNLTKANLAKIPLDESLLDAIELAQRLQKEARRRQLQYIGKLFRGIDVEPIREALDKIENKHNQQQAMLHKIEKVRDELVEKGDVALTDLLNDYPNGDRQQLRNLIRSAQKELEQNKPSKAYREIYQMLKVLMLED”, for which the “soluble on expression in E. coli” value was “not soluble”. For the sequence “MGNNSSAQSSTPSLPIDSTFNLPSPLPSWPSGEGFAKGRIDLGGLEVSQVDTFNKVWTVYEGGQDNLGATFFEPSSVPEGFSILGFYAQPNNRKLFGWTLVGKDLSGDSLRPPVDYLLLWSGKSTKVENNKVETGYFWQPVPPDGYNAVGLIVTTSDEKPPLDKIRCVRSDLTDQSEPDALIWETNGFSVSSSKPVNRGTQASGVSVGTFFSNSPNPALPCLKNNNFDFSCMPSKPQIDALFQTYAPWIYFHKDEKYLPSSVNWFFSNGALLYKKGDESNPVPVEPNGLNLPQGEFNDGLYWLDLPVASDARKRVQCGDLQSMEVYLHIKPVFGGTFTDIAVWMFYPFNGPSRAKLKAASIPLGRIGEHIGDWEHFTLRISNFSGKLHRMYLSQHSGGSWADASEIEFQGGGNKPVAYASLNGHAMYSKPGLVLQGKDNVGIRNDTGKSEKVIDTAVRFRVVAAEYMRGELEEPAWLNYMRHWGPKIDYGHENEIRGVEKIMVGESLKTTFRSAIKGLPNEVFGEEGPTGPKLKRNWLGDEV”, the “soluble on expression in E. coli” value is on record as “not soluble”. Consider “MSLRPTIYDVAKAAGVSKSLVSLVLRGSPNVSKESEAAVKTAIKKLNYQPNRAASDLAAKRTQLIAVLIDDYSNPWFIDLIQSLSDVLTPKGYRLSVIDSLTSQAGTDPITSALSMRPDGIIIAQDIPDFTVPDSLPPFVIAGTRITQASTHDSVANDDFRGAEIATKHLIDLGHTHIAHLRVGSGAGLRRFESFEATMRAHGLEPLSNDYLGPAVEHAGYTETLALLKEHPEVTAIFSSNDITAIGALGAARELGLRVPEDLSIIGYDNTPLAQTRLINLTTIDDNSIGVGYNAALLLLSMLDPEAPHPEIMHTLQPSLIERGTCAPREGHHHHHH”, for which the “soluble on expression in E. coli” value is “soluble”. Next, “GPGSMSYHGPNREGLGEDLEEAEEAFIDLEDPNIEILDEAALPEEDGDDASDVVDNHAGMDVQDRGNEEEGEGLHLGVEVEDLNAAPDYEPEHDDAFATFVAPAKKPLHAIAVHPQNERIFAVGGEGEEVYILEMDHAGKEPALKATLTGHTDTVSLLSFSPNGQWLASGSLDSSVAVWSTETWERKHTLGDLYGEIMTLLWHPSSLILAAGADDAQAAMWNVVKGTLIMYFVGHRGAVTCTAWSPDVKKLVTGSSDGTVAVFNPKTGDQELCISKDLSPDNAGITALQFVNADQCVVGCEDGTLHVISLRSGKVATHFEDLHEQAIESLAINRSSLLLLTASCDCRVIVWNVADFSPRATVEVGESVIPALWSHSNLIAAGCSDGNIRVWDGRSSAQDPLALLMGHRRMVLGLVTTSTVLASTSDDGTAKFYRFAETFR”: “soluble”; “SAPAAALKKAAEAAEPATVTEDATDLQNEVDQELLKDMYGKEHVNIVFIGHVDAGKSTLGGNILFLTGMVDKRTMEKIEREAKEAGKESWYLSWALDSTSEEREKGKTVEVGRAYFETEHRRFSLLDAPGHKGYVTNMINGASQADIGVLVISARRGEFEAGFERGGQTREHAVLARTQGINHLVVVINKMDEPSVQWSEERYKECVDKLSMFLRRVAGYNSKTDVKYMPVSAYTGQNVKDRVDSSVCPWYQGPSLLEYLDSMTHLERKVNAPFIMPIASKYKDLGTILEGKIEAGSIKKNSNVLVMPINQTLEVTAIYDEADEEISSSICGDQVRLRVRGDDSDVQTGYVLTSTKNPVHATTRFIAQIAILELPSILTTGYSCVMHIHTAVEEVSFAKLLHKLDKTNRKSKKPPMFATKGMKIIAELETQTPVCMERFEDYQYMGRFTLRDQGTTVAVGKVVKILD”: “soluble”; “MMFKNFPFFKGKKDTSFDHLVEEVKKGYIPEHIAIIMDGNGRWAKRRAMPRIAGHHEGMQVVKKITKFASKLNVKVLTLYAFSTENWKRPKKEVDYLMQLPEEFLGTFLPELIEENVQVRVIGQQDRLPTHTRRAMEKAMEETKENTGLILNFALNYGSRDEIVSAVQHMMKDSEEGKVRVEDVSEEMLSSYLMTSSLPDPELLIRTSGELRISNFMLWQIAYSEFWFTDVYWPDFTEEHLLNAITDFQHRGRRFGGV”: “not soluble”.
